Laboratory results taken from article PMC5741103.

Columns and labels:
SLMAP [1] = biological target: SLMAP (UniProt Q14BN4); assay: co-IP, FLAG-MST2 and V5-SLMAP; conditions: reference: wild type MST2; sites T325,T336,T378
SLMAP [2] = biological target: SLMAP (UniProt Q14BN4); assay: co-IP, MST2 variants and V5-SLMAP

MST2 (from UniProt Q13188) MST2-3A
binding against the reference (SLMAP [1]): lost

MST2 (from UniProt Q13188) MST2-7A
binding against the reference (SLMAP [2]; reference: MST2-6A/325T, sites T325): lost
binding against the reference (SLMAP [2]; reference: MST2-6A/336T, sites T336): lost
binding against the reference (SLMAP [2]; reference: MST2-6A/378T, sites T378): lost
